B1: IR-S (dsDNA)
DNA 1: TAGCTCGATTCGAGCTA
DNA 2: TAGCTCGAATCGAGCTA
B2: IR-L (dsDNA)
DNA 1: CAGAATATCATTGCATAGCTCGATTCGAGCTAATATAGTAATACCAACAGCGCGGCACACCGCCAGCACTGAACCT
DNA 2: AGGTTCAGTGCTGGCGGTGTGCCGCGCTGTTGGTATTACTATATTAGCTCGAATCGAGCTATGCAATGATATTCTG

Columns and labels:
[1] = molecular target: T1, AcrIF24 S45Y (Pseudomonas aeruginosa prophage, UniProt A0AA82WNY5 1-228, S45Y); experiment: EMSA; 1 uM protein; EMSA-P: 10 mM HEPES pH 7.5, 1 mM MgCl2, 20 mM KCl, 1 mM TCEP, 5% glycerol, 30 min on ice; 10% native 0.5x TBE gel, SYBR Gold; Cascade EMSA buffer not in material; conditions: protein: recombinant; chain copies: 2; label: none (SYBR Gold stain); blunt
T1 sequence: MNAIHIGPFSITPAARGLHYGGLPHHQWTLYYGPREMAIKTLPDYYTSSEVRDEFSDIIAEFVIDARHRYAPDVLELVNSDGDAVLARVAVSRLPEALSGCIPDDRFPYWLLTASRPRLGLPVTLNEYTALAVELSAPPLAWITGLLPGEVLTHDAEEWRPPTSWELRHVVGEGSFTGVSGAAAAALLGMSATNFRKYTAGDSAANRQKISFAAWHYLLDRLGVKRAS

[2] = molecular target: T2, AcrIF24 R16W (Pseudomonas aeruginosa prophage, UniProt A0AA82WNY5 1-228, R16W); experiment: as above; conditions: protein: recombinant; chain copies: 2; label: none (SYBR Gold stain); blunt
T2 sequence: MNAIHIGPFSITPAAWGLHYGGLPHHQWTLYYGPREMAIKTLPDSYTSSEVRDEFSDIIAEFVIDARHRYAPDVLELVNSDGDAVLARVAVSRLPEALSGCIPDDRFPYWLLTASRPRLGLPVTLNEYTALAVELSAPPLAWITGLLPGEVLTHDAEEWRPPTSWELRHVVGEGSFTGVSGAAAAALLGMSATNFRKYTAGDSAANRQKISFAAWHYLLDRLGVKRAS

[3] = molecular target: T3, AcrIF24 R207W (Pseudomonas aeruginosa prophage, UniProt A0AA82WNY5 1-228, R207W); experiment: as above; conditions: protein: recombinant; chain copies: 2; label: none (SYBR Gold stain); blunt
T3 sequence: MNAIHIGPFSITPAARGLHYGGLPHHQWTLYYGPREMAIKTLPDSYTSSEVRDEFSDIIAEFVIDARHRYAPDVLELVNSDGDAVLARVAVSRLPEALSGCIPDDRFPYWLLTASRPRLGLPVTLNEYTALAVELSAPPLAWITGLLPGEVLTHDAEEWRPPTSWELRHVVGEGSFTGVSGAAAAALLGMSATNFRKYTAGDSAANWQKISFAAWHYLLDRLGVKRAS

[4] = molecular target: T4, AcrIF24 K197Y (Pseudomonas aeruginosa prophage, UniProt A0AA82WNY5 1-228, K197Y); experiment: as above; conditions: protein: recombinant; chain copies: 2; label: none (SYBR Gold stain); blunt
T4 sequence: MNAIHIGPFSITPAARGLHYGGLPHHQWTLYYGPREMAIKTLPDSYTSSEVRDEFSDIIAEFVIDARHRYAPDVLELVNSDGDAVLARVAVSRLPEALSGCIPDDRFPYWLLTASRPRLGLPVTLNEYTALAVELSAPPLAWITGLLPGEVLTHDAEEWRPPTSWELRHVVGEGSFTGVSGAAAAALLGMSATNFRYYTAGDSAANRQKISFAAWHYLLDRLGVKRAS

[5] = molecular target: T5, AcrIF24 Y128K/Y217W (Pseudomonas aeruginosa prophage, UniProt A0AA82WNY5 1-228, Y128K;Y217W); experiment: EMSA; EMSA-P: 10 mM HEPES pH 7.5, 1 mM MgCl2, 20 mM KCl, 1 mM TCEP, 5% glycerol, 30 min on ice; 10% native 0.5x TBE gel, SYBR Gold; Cascade EMSA buffer not in material; conditions: protein: recombinant; label: none (SYBR Gold stain); blunt
T5 sequence: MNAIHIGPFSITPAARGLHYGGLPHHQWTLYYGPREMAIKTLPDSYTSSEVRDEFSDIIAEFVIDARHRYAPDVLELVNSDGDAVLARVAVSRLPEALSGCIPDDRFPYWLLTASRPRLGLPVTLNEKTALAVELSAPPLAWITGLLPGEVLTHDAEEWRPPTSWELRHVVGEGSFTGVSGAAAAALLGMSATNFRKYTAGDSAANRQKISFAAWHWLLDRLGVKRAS

[6] = molecular target: T1, AcrIF24 S45Y; experiment: EMSA; native PAGE; EMSA-P: 10 mM HEPES pH 7.5, 1 mM MgCl2, 20 mM KCl, 1 mM TCEP, 5% glycerol, 30 min on ice; 10% native 0.5x TBE gel, SYBR Gold; Cascade EMSA buffer not in material; conditions: protein: recombinant; chain copies: 2; label: none (SYBR Gold stain); blunt
[7] = molecular target: T3, AcrIF24 R207W; experiment: as above; conditions: protein: recombinant; chain copies: 2; label: none (SYBR Gold stain); blunt
[8] = molecular target: T4, AcrIF24 K197Y; experiment: as above; conditions: protein: recombinant; chain copies: 2; label: none (SYBR Gold stain); blunt

Binder	binding result [1]	binding result [2]	binding result [3]	binding result [4]	binding result [5]	binding result [6]	binding result [7]	binding result [8]
B1	binds	binds	no binding	no binding	–	–	–	–
B2	–	–	–	–	no binding	binds	no binding	no binding
